Test results reported in US8466107B2, “Fibrin-binding peptides and conjugates thereof” (Bracco Imaging SpA, priority 2006, dated 2013).
Numbered stars: 1 amine (or outer) side, 2 acyl side, 3 side chain; on linkers, the order of the positions; unused ones are H or OH. Bridge positions count the residues as written; N and C are the ends. Square brackets hold non-standard residues; d marks the D form. Side chains are listed from the residue outwards. Ends that are not written are not given here. Peptide text beside a SMILES is read from it. * marks the point of attachment. DSPE = distearoyl phosphatidylethanolamine, CCCCCCCCCCCCCCCCCC(=O)OC[C@H](COP(=O)(O)OCCN*)OC(=O)CCCCCCCCCCCCCCCCC; DPPE = CCCCCCCCCCCCCCCC(=O)OC[C@H](COP(=O)(O)OCCN*)OC(=O)CCCCCCCCCCCCCCC; Tuda = 3,6,9-trioxaundecane-1,11-dioyl, O=C(COCCOCCOCC(=O)[*:3])[*:2]; 5FAM = O=C1OC2(c3ccc(O)cc3Oc3cc(O)ccc32)c2ccc(C(=O)*)cc21; Glutaryl = O=C(CCCC(=O)[*:2])[*:1]; Cha = N[C@@H](CC1CCCCC1)C(=O)O; PG4 = not defined here; AEEA = NCCOCCOCC(=O)O

Legend:
fibrin = biological target: T1, fibrin (Homo sapiens, UniProt P02671+P02675+P02679); test: Dynamic binding test of targeted microvesicles on fibrin-coated coverslips in a parallel-plate flow chamber; settings: shear rate about 114 s^-1, 10 min, 50% human plasma
T1 sequence (P02671 36-629 limits assumed): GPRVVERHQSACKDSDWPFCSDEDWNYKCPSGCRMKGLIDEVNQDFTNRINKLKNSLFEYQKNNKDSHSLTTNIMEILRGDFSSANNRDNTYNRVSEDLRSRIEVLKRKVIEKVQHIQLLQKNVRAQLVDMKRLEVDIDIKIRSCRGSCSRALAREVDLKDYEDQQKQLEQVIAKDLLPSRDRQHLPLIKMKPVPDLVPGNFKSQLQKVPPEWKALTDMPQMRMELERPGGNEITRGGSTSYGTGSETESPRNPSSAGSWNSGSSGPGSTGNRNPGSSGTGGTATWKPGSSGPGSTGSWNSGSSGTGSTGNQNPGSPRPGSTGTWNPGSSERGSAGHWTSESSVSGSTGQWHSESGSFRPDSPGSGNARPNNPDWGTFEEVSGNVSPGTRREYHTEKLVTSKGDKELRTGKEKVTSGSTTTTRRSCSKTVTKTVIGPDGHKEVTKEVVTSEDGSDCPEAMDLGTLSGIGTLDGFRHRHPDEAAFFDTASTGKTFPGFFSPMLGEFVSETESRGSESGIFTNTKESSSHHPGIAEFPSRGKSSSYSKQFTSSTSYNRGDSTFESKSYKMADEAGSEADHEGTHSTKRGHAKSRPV
T1 sequence (P02675 45-491 limits assumed): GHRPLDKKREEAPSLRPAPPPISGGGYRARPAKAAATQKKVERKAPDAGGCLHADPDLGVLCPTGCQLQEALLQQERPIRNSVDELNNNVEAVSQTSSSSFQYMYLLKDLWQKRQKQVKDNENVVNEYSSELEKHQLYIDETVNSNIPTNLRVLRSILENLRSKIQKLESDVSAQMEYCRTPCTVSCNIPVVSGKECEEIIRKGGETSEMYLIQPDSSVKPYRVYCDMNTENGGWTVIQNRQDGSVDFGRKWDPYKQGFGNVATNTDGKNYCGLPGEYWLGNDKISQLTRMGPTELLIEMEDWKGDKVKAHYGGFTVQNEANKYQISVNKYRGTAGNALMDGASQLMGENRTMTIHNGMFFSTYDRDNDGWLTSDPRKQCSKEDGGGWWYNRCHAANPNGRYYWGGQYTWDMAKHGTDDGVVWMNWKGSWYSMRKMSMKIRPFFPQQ
T1 sequence (P02679 27-437 isoform P02679-2 limits assumed): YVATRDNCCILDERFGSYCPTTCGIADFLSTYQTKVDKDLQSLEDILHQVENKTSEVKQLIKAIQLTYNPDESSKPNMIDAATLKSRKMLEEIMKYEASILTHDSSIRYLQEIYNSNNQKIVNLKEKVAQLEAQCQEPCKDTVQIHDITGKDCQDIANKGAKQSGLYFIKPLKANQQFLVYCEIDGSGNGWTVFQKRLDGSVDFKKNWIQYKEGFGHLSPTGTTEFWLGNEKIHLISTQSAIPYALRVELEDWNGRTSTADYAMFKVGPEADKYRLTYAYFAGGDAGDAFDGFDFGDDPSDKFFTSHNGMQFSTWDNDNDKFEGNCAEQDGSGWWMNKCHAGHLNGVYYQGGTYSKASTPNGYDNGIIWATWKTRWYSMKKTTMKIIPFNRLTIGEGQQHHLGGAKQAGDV
Method: Glass coverslips (40 mm in diameter, Bioptechs Inc., Butler, Pa., USA) were coated with fibrin according the following methodology.
Five mL of a solution of BSA 1% w/v in PBS pH 7.4 were added into a 60 mm Petri Dish containing one coverslip, and incubated at 37° C. for 15 min. Then the coverslip was washed three times with 5 ml of Tween 80/PBS (0.1%, v:v). Twenty five μL of human thrombin solution at 5 U/mL were added per mL of human fibrinogen solution (0.5 mg/mL in 50 mM sodium phosphate, NaCl 280 mM, pH 7.4) and delicately mixed. Five mL of this solution were immediately distributed in each Petri dish. The coverslips were incubated for one hour at 37° C. and then dried overnight at 45° C.
Binding studies of targeted microvesicles were carried out using a parallel-plate flow chamber (FCS2, Bioptech Inc., Butler, Pa., USA) with a chamber gasket of 0.25 mm in thickness, with a customized adapter for upside-down chamber inversion. The coated coverslip was inserted as a plate of the flow chamber. Gas-filled Microvesicles (5×10^6 bubbles/mL in 50% human plasma in PBS) were drawn through the flow chamber using an adjustable infusion pump (Auto Syringe® AS50 Infusion Pump, Baxter, Deerfield, Ill., USA) with a 60 mL syringe (Terumo). The pump flow rate was adjusted to 1 mL/min to obtain the desired shear rate of about 114 s^−1. After 10 minutes, the flow was stopped and pictures were taken randomly on different positions on the coverslip (on surfaces of about 0.025 mm^2) using a 40× objective and a CCD monochrome camera (F-View II, Soft Imaging Systems, Germany) connected to an inverted Olympus IX 50 microscope. The number of microvesicles on each picture was determined, averaged with respect to the total number of pictures and the obtained value was then divided by ten (to obtain the “slope”, i.e. the average amount of bound microvesicles per minute).
For each preparation of Examples 17-20, the binding assay was repeated four times thus obtaining an average value of the slope. The slope represents the microvesicle binding rate on the target substrate. […] A higher slope indicates a better capacity of microvesicles to bind to the target under flow conditions.

[1] = biological target: DDE (fibrin-derived polypeptide) (Homo sapiens, UniProt P02671+P02675+P02679); test: Direct binding fluorescence polarization (FP) assay using 5-carboxyfluorescein labeled peptides; settings: 20 nM CF5-labeled peptide, serial dilutions of DDE, anisotropy read at 485 nm; read-out: KD (μM) Direct Binding (n = 2)
[2] = microvesicles with DSPC/DSPA envelope, 0.26 μmoles lipopeptide (Examples 20E, 20G, 20H)
[3] = microvesicles with DPPE/DPPG envelope containing the lipopeptide (Examples 18A-18C), slope = average bound microvesicles per minute
[4] = microvesicles with DSPC/stearate envelope containing the lipopeptide (Examples 20A-20D)
[5] = microvesicles with DSPC/DSPG envelope, Examples 19C-19E (0.45 μmoles lipopeptide, 0.45 μmoles DSPE-PEG1000)

## Seq000-PL2: comparative lipopeptide prepared from Seq000(Adoa-Adoa) and DPPE (Ac-WQPCPWESWTFCWDPGGGK([AEEA-AEEA-Tuda-DPPE])-NH2; disulfide 4-12) [reference compound]
fibrin; [2]
  Slope: 4.6

## Ac-WQPCPAESWTFCWDPGAGSGK(DPPE-Pro9-Glut-Ttda-Dga)-NH2 (Ac-WQPCPAESWTFCWDPGAGSGK-NH2; disulfide 4-12 (inferred); not fully specified (residue 21)) [Seq005-PL5]
fibrin; [2]
  Slope: 6.0

## Ac-WQPC*PWESWTFC*WDPGGGK(DPPE-PG4-Glut)-NH2 (Ac-WQPCPWESWTFCWDPGGGK([Glutaryl-PG4-DPPE])-NH2; disulfide 4-12; reading uncertain) [Seq000-PL1, reference compound]
fibrin; [3]
  Slope: 4.8
fibrin; microvesicles with DSPC/DPPG envelope containing the lipopeptide (Examples 17A-17B, molar ratio 47.5/47.5/5), slope = average bound microvesicles per minute
  Slope: 6.44
fibrin; microvesicles with DSPC/DSPG envelope, Example 19A (0.63 μmole lipopeptide, 0.28 μmole DSPE-PEG1000)
  Slope: 4.4
fibrin; microvesicles with DSPC/DSPG envelope, Example 19B (0.36 μmole lipopeptide, 1.44 μmoles DSPE-PEG1000)
  Slope: 4.9
fibrin; [4]
  Slope: 1.6

## Ac-SGSGJWQPC*PWESWTFC*WDPGGGK(DSPE-PG4-Glut)-NH2 (Ac-SGSG[AEEA]WQPCPWESWTFCWDPGGGK-NH2; disulfide 9-17; not fully specified (residue 24); printed as Ac-SGSGJWQPC*PWESWTFC*WDPGGGK(DSPE-PG4-Glut)-NH2) [Seq017-PL1]
fibrin; [3]
  Slope: 8.9
fibrin; [4]
  Slope: 3.1

## RWQPC*PWESWTFC*WDPGGGK(DSPE-PG4-Glut)-NH2 (RWQPCPWESWTFCWDPGGGK([Glutaryl-PG4-DSPE])-NH2; disulfide 5-13; reading uncertain; also: printed as RWQPC*PWESWTFC*WDPGGGK(DSPE-PG4-Glut)-NH2) [Seq023-PL1]
fibrin; [5]
  Slope: 8.5

## Ac-SGSGSGSGWQPC*PWESWTFC*WDPGGGK(DSPE-PG4-Glut)-NH2 (Ac-SGSGSGSGWQPCPWESWTFCWDPGGGK([Glutaryl-PG4-DSPE])-NH2; disulfide 12-20; reading uncertain; also: printed as Ac-SGSGSGSGWQPC*PWESWTFC*WDPGGGK(DSPE-PG4-Glut)-NH2) [Seq024-PL1]
fibrin; [5]
  Slope: 6.2

## CC(=O)N[C@@H](Cc1c[nH]c2ccccc12)C(=O)N[C@@H](CCC(N)=O)C(=O)N1CCC[C@H]1C(=O)N[C@H]1CSSC[C@@H](C(=O)N[C@@H](Cc2c[nH]c3ccccc23)C(=O)N[C@@H](CC(=O)O)C(=O)N2CCC[C@H]2C(=O)NCC(=O)NCC(=O)NCC(=O)N[C@@H](CCCCNC(=O)c2ccc3c(c2)C(=O)OC32c3ccc(O)cc3Oc3cc(O)ccc32)C(N)=O)NC(=O)[C@H](CC2CCCCC2)NC(=O)[C@H]([C@@H](C)O)NC(=O)[C@H](Cc2c[nH]c3ccccc23)NC(=O)[C@H](CO)NC(=O)[C@H](CCC(=O)O)NC(=O)[C@H](Cc2c[nH]c3ccccc23)NC(=O)[C@@H]2CCCN2C1=O [Seq018-CF5, Ac-WQPC*PWESWT-Cha-C*WDPGGGK(CF5)-NH2] (Ac-WQPCPWESWT[Cha]CWDPGGGK(5FAM)-NH2; disulfide 4-12)
[1]
  Kd: 0.2 µM

## C[C@@H](O)[C@@H]1NC(=O)[C@H](Cc2c[nH]c3ccccc23)NC(=O)[C@H](CO)NC(=O)[C@H](CCC(=O)O)NC(=O)[C@H](Cc2c[nH]c3ccccc23)NC(=O)[C@@H]2CCCN2C(=O)[C@@H](NC(=O)[C@@H]2CCCN2C(=O)[C@H](CCC(N)=O)NC(=O)[C@H](Cc2c[nH]c3ccccc23)NC(=O)[C@@H](N)CCCNC(=N)N)CSSC[C@@H](C(=O)N[C@@H](Cc2c[nH]c3ccccc23)C(=O)N[C@@H](CC(=O)O)C(=O)N2CCC[C@H]2C(=O)NCC(=O)NCC(=O)NCC(=O)N[C@@H](CCCCNC(=O)c2ccc3c(c2)C(=O)OC32c3ccc(O)cc3Oc3cc(O)ccc32)C(N)=O)NC(=O)[C@H](Cc2ccccc2)NC1=O [Seq023-CF5] (H-RWQPCPWESWTFCWDPGGGK(5FAM)-NH2; disulfide 5-13; N-terminus assumed)
[1]
  Kd: 0.11 µM

## CC(=O)NCC(=O)NCC(=O)N[C@@H](CCCNC(=N)N)C(=O)NCC(=O)N[C@@H](Cc1c[nH]c2ccccc12)C(=O)N[C@@H](CCC(N)=O)C(=O)N1CCC[C@H]1C(=O)N[C@H]1CSSC[C@@H](C(=O)N[C@@H](Cc2c[nH]c3ccccc23)C(=O)N[C@@H](CC(=O)O)C(=O)N2CCC[C@H]2C(=O)NCC(=O)NCC(=O)NCC(=O)N[C@@H](CCCCNC(=O)c2ccc3c(c2)C(=O)OC32c3ccc(O)cc3Oc3cc(O)ccc32)C(N)=O)NC(=O)[C@H](Cc2ccccc2)NC(=O)[C@H]([C@@H](C)O)NC(=O)[C@H](Cc2c[nH]c3ccccc23)NC(=O)[C@H](CO)NC(=O)[C@H](CCC(=O)O)NC(=O)[C@H](C)NC(=O)[C@@H]2CCCN2C1=O [Seq035-CF5] (Ac-GGRGWQPCPAESWTFCWDPGGGK(5FAM)-NH2; disulfide 8-16)
[1]
  Kd: 0.52 µM

## CC(=O)NCC(=O)N1CCC[C@H]1C(=O)N1CCC[C@H]1C(=O)NCC(=O)N[C@@H](Cc1c[nH]c2ccccc12)C(=O)N[C@@H](CCC(N)=O)C(=O)N1CCC[C@H]1C(=O)N[C@H]1CSSC[C@@H](C(=O)N[C@@H](Cc2c[nH]c3ccccc23)C(=O)N[C@@H](CC(=O)O)C(=O)N2CCC[C@H]2C(=O)NCC(=O)NCC(=O)NCC(=O)N[C@@H](CCCCNC(=O)c2ccc3c(c2)C(=O)OC32c3ccc(O)cc3Oc3cc(O)ccc32)C(N)=O)NC(=O)[C@H](Cc2ccccc2)NC(=O)[C@H]([C@@H](C)O)NC(=O)[C@H](Cc2c[nH]c3ccccc23)NC(=O)[C@H](CO)NC(=O)[C@H](CCC(=O)O)NC(=O)[C@H](Cc2c[nH]c3ccccc23)NC(=O)[C@@H]2CCCN2C1=O [Seq014-CF5] (Ac-GPPGWQPCPWESWTFCWDPGGGK(5FAM)-NH2; disulfide 8-16)
[1]
  Kd: 0.25 µM
